Reference: US20120141463A1 (AstraZeneca / MedImmune, published 2012)
No end group written: not given here. Ahx = NCCCCCC(=O)O

T1: cεmx.migis peptide (human, C-terminal -(Ahx)(K-Biot): aminohexanoic acid linker followed by a biotinylated lysine)
T1 construct: also called peptide (ii); cεmx.migs peptide
T1 peptide: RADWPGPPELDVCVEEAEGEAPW

T2: ε-migis peptide (human)
T2 construct: also called peptide (i); human ε-migis
T2 peptide: ELDVCVEEAEGEAPW-{Ahx-K(biotin)}

T3: peptide from phosphoinositide binding protein (human)
T3 construct: also called peptide (vi); PIBP peptide
T3 peptide: TQLLCVEAFEGEEPW-{Ahx-K(biotin)}

B1: A1c antibody (antibody, V domains shown)
VH: EVQLLESGGGLVQPGGSLRLSCAASGFTFSFYSMLWVRQAPGKGLEWVSYIGPSGGKTYYADSVKGRFTISRDNSKNTLYLQMNSLRAEDTAMYYCARRYCSGGSCYFDYWGQGTLVTVSS
VL: DIQMTQSPSTLSASIGDRVTITCRASQSINSWLAWYQQKPGKGPDLLIYKASSLQSGVPSRFSGSGSGTEFTLTISSLQPDDFATYYCQQYSSWPLTFGGGTKVEIKR
notes: Human Fab phage clone converted to full IgG; also called anti ε-migis antibody A1c
B2: B1 antibody (antibody, V domains shown)
VH: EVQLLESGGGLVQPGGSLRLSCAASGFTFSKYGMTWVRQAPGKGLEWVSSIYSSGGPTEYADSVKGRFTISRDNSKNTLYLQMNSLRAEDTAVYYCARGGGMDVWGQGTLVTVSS
VL: DIQMTQSPVSLPVTLGQPASISCRSSHSLVYSHGGTYLNWFQQRPGRSPRRLIYQVSNRDSGVPDRFSGSGSDTDFTLQISRVEADDIGIYYCMQSTYWPYAFGQGTKLDIKR
notes: Human Fab phage clone converted to full IgG; also called CP1-B1
B3: F4 antibody (antibody, V domains shown)
VH: EVQLLESGGGLVQPGGSLRLSCAASGFTFSNYGMFWVRQAPGKGLEWVSSIWPSGGNTMYADSVKGRFTISRDNSKNTLYLQMNSLRAEDTAVYYCARASYYGMDVWGQGTTVTVSS
VL: DIQMTQSPSSLSASIGDRVTITCRGSQNIGRYLNWYQHKPGKAPDLLVYAASSLRSGVPSRFSGSGSGRDFTLTISSLQPGDFATYYCQQSYSAPFTFGAGTKVDVKR
notes: Human Fab phage clone converted to full length IgG; also called clone F4
B4: D5 antibody (antibody, V domains shown)
VH: EVQLLESGGGLVQPGGSLRLSCAASGFTFSKYHMVWVRQAPGKGLEWVSSIGPSGGNTYYADSVKGRFTISRDNSKNTLYLQMNSLRAEDTATYYCARALGATFDYWGQGTLVTVSS
VL: DIQMTQSPLSLPVTLGQPASISCKSSQSLVYRDGITYLSWFQQRPGQSPRRLIYKVSNRDSGVPDRFSGSGSDSNFTLKISSVEAEDVGLYFCMQGSHWPFTFGPGTKVDIKR
notes: Fully human clone from the Dyax FAB-310 Fab phage library, converted to full length IgG (detected with an anti-human IgG1 Fc antibody); also called D5 IgG; clone D5

Key:
cεmx.migis peptide [1] = target: T1, cεmx.migis peptide; experiment: inhibition phage ELISA: cεmx.migis peptide on Neutravidin plate, phage with irrelevant IgG control or A1c IgG, anti-M13-HRP
ε-migis peptide = target: T2, ε-migis peptide; experiment: peptide ELISA (Migis, cemx.migis, PIBP peptide); antibody concentration not shown
[2] = target: T3, peptide from phosphoinositide binding …; experiment: as above
cεmx.migis peptide [3] = target: T1, cεmx.migis peptide; experiment: inhibition phage ELISA: cεmx.migis peptide on Neutravidin plate, phage with control IgG, A1c or B1, anti-M13-HRP
mIgM on RPMI 1788 cells = target: T4, mIgM on RPMI 1788 cells (human, UniProt P01871 1-474); experiment: FACS, primary antibody plus secondary (Gt α Mu or G α Hu); % cells staining and MF
T4 construct: whole, on cells; Endogenous immunoglobulin of the cell line; light chain not described; also called IgM (RPMI 1788 cells); membrane IgM
T4 sequence (P01871 whole entry): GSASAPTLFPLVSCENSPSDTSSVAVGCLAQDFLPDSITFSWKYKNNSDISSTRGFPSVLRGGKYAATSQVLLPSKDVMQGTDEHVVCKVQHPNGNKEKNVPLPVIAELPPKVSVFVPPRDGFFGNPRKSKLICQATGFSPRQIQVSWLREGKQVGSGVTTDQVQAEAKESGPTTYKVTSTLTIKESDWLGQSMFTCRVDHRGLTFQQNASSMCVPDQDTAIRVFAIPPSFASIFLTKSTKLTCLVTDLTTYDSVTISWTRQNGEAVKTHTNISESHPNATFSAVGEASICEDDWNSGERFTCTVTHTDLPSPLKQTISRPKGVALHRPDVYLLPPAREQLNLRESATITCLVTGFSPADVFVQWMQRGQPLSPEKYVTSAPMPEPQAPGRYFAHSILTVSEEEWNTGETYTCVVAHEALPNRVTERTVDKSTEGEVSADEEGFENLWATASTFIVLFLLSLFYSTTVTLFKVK

| Binder | binding result (cεmx.migis peptide [1]) | binding result (ε-migis peptide) | binding result [2] | binding result (cεmx.migis peptide [3]) | binding result (mIgM on RPMI 1788 cells) |
| --- | --- | --- | --- | --- | --- |
| B1 | binds | binds | binds |  |  |
| B2 |  | no binding | no binding | binds |  |
| B3 |  |  |  | binds |  |
| B4 |  | no binding | no binding | binds | no binding |
